Consider 1 substance from patent US20030195154A1.

The target of this test is soluble human myeloproliferative leukemia (MPL) receptor (human) (UniProt P40238). Description: BIAcore competition: test protein preincubated with 5 nM MPL receptor, passed over Fc-TMP on protein G chip. Also noted: unit not given here. A general note: Surface plasmon resonance follows binding to a sensor surface in real time, without labels.
Chain of UniProt P40238 (P40238 26-491 limits assumed): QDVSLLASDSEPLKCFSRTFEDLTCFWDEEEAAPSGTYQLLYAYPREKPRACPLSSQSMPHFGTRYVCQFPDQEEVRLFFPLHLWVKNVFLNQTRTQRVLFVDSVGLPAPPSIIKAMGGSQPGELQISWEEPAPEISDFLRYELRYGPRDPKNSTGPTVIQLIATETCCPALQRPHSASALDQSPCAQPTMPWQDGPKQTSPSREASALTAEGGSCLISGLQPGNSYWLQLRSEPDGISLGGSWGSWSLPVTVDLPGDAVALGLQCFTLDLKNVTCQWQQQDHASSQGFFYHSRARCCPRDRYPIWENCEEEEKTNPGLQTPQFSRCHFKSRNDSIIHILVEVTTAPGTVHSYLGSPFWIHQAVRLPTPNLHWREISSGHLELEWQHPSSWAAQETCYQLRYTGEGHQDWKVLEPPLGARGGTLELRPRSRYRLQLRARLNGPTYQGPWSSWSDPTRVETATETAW

For “TMP sequence fused to the carboxy-terminus of human immunoglobulin Fc (Fc-TMP) (Fc fusion)”, the affinity lay in the range of 3.28 to 5.37.
